Data: paper PMC2798062

Assays:
[1] = system: C[C@H]1C=C2C=C[C@H](C)[C@H](CC[C@@H](O)C[C@@H](O)CC(=O)O)[C@H]2[C@@H](O)C1; test: purified protein; format: biochemical, Aspergillus terreus; details: 2 mM DMB-SMMP fixed, 10% DMSO, 25°C
CCC(C)(C)C(=O)SCCC(=O)OC = test: purified protein; format: biochemical, Aspergillus terreus; details: 2 mM MJA fixed; 10% DMSO; table header prints mM^-1, text b12 prints mM; 25.0 °C

LovD G0 (Aspergillus terreus; A86V/C40A/C60N)
Km ([1]; mutant G1): 740 ± 160 µM
kcat ([1]; mutant G1): 0.0132 ± 0.0005 s⁻¹

LovD G0 (Aspergillus terreus; A190T/A86V/C40A/C60N/D12G/G275S)
Km ([1]; mutant G3): 770 ± 110 µM
kcat ([1]; mutant G3): 0.031 ± 0.0015 s⁻¹

LovD G0 (Aspergillus terreus; A190T/A86V/C40A/C60N/D12G/G275S/H161Y/K26E)
Km ([1]; mutant G5): 740 ± 30 µM
kcat ([1]; mutant G5): 0.0435 ± 0.0005 s⁻¹

LovD G0 (Aspergillus terreus; A190T/A86V/C40A/C60N/D12G/G275S/H161Y/K26E/L361M/V334D)
Km ([1]; mutant G6): 700 ± 70 µM
kcat ([1]; mutant G6): 0.055 ± 0.001 s⁻¹

LovD G0 (Aspergillus terreus; A190T/A86V/C40A/C60N/D12G/G275S/H161Y/K26E/V334F)
Km ([1]; mutant G7): 700 ± 40 µM
kcat ([1]; mutant G7): 0.08 ± 0.001 s⁻¹

LovD G0 (Aspergillus terreus; C40A/C60N)
Km (CCC(C)(C)C(=O)SCCC(=O)OC): 0.67 ± 0.12 mM
kcat (CCC(C)(C)C(=O)SCCC(=O)OC): 0.011 ± 0.0005 s⁻¹
Km [1]: 770 ± 170 µM
kcat [1]: 0.011 ± 0.0005 s⁻¹
